Measurements reported in paper PMC6309729.
Where two headings read alike, the source gives them in different places.

Columns and labels:
Experiment in all cases: other fluorescence titration
[1] = target: cpSRP54(234C)-acrylodan (Arabidopsis thaliana) (UniProt P37107)
[2] = target: cpSRP54(234C)-acrylodan (Arabidopsis thaliana) (UniProt P37107); remark: listed apart in the source
[3] = target: acrylodan-labeled cpSRP54(234C, A142W) (Arabidopsis thaliana)

B1: cpFtsY (chloroplast SRP receptor), wildtype (natural protein)
chain: CSAGPSGFFTRLGRLIKEKAKSDVEKVFSGFSKTRENLAVIDELLLFWNLAETDRVLDELEEALLVSDFGPKITVRIVERLREDIMSGKLKSGSEIKDALKESVLEMLAKKNSKTELQLGFRKPAVIMIVGVNGGGKTTSLGKLAHRLKNEGTKVLMAAGDTFRAAASDQLEIWAERTGCEIVVAEGDKAKAATVLSKAVKRGKEEGYDVVLCDTSGRLHTNYSLMEELIACKKAVGKIVSGAPNEILLVLDGNTGLNMLPQAREFNEVVGITGLILTKLDGSARGGCVVSVVEELGIPVKFIGVGEAVEDLQPFDPEAFVNAIFS
kon [1]: 157000 M⁻¹ s⁻¹ | kon [2]: 230000 M⁻¹ s⁻¹ | apparent dissociation rate constant (before subtracting GTP hydrolysis) [3]: 0.038 s⁻¹ | koff [3]: 0.03 s⁻¹ | kon [3]: 190000 M⁻¹ s⁻¹
